Source: article PMC9666519

Legend:
[1] = target: 20S proteasome core particle of Vairimorpha necatrix (Vairimorpha necatrix (endogenous in spores)); test: cryo-EM structure; 26S proteasomes from germinated sporoplasms, purified with 20 mM ATP; 8.3 Å map without symmetry, AlphaFold models of the RP subunits docked as rigid bodies
[2] = target: 20S proteasome core particle of Vairimorpha necatrix (Vairimorpha necatrix (endogenous in spores)); test: cryo-EM structure; proteasomes from dormant V. necatrix spores, bead-beaten without ATP, lysate on Superose 6 Increase in 50 mM Tris pH 7.4, 300 mM NaCl, 5 mM DTT; 2.8 Å map of the 20S CP, C2 symmetry

Row | Substance | percent of proteasome particles capped by RP [1] [%] | percent of proteasome particles capped by RP on both ends [1] [%] | stoichiometry N (PI31L per 20S core particle) [2]
1 | 19S regulatory particle of the Vairimorpha necatrix proteasome (complex) | 12 | 1.5 | 
2 | PI31-like protein (PI31L) of Vairimorpha necatrix (natural protein) |  |  | 2
